Measured values published in PMC8274241.
Like-named read-outs stand apart in the source and are kept apart here.

Columns and labels:
Assay in all cases: cryo-EM
[1] = biological target: T1, LshCas13a (Leptotrichia shahii, UniProt P0DOC6 1-1389)
T1 sequence: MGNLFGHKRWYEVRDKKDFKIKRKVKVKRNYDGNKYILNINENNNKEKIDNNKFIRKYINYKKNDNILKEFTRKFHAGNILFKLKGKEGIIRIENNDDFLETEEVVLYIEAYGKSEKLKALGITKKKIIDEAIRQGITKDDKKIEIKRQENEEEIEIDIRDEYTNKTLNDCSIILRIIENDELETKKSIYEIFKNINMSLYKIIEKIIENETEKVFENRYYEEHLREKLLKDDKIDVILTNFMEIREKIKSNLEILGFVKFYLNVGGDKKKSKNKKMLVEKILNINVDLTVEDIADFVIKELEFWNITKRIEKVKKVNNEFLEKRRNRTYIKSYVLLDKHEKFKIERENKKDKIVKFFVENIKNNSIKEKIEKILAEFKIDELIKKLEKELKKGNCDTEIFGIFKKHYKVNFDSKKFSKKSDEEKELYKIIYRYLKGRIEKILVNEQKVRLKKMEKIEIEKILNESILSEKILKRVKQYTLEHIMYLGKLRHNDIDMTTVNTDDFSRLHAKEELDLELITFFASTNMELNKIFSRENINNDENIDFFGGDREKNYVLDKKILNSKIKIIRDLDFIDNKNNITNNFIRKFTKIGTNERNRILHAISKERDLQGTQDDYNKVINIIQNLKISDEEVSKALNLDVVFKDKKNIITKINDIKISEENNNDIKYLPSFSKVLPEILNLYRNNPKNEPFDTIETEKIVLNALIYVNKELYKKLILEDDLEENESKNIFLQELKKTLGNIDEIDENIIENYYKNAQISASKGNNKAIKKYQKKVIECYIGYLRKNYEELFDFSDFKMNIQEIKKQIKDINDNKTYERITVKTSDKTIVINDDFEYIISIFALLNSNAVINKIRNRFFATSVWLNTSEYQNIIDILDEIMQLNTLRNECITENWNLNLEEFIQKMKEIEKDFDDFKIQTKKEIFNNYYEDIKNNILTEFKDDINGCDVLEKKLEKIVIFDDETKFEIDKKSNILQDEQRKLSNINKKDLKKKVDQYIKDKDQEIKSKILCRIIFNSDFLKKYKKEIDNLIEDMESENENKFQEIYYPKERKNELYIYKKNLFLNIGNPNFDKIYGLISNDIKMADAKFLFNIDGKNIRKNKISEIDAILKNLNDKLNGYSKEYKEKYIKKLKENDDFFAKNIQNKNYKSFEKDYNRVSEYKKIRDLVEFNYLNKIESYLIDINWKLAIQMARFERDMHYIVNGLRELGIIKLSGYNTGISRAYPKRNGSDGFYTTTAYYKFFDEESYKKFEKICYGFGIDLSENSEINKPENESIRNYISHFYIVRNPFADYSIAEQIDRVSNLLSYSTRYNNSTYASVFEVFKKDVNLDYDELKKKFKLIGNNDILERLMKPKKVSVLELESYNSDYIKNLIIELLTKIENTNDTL

[2] = biological target: T1, LshCas13a; remark: listed apart in the source
[3] = biological target: T1, LshCas13a; remark: listed apart in the source

B1: Lsh crRNA (56-nt as named) + RNA6 (8-nt anti-tag) (mixed)
RNA 1: GGCCACCCCAAUAUCGAAGGGGACUAAAACUAGAUUGCUGUUCUACCAAGUAAUCCAU
RNA 2: GAUGGAUUACUUGGUAGAACAGCAAUCUAGUUUUAGU
B1: binds [1].

B2: Lsh crRNA + RNA4 (no anti-tag) (mixed)
RNA 1: GGCCACCCCAAUAUCGAAGGGGACUAAAACUAGAUUGCUGUUCUACCAAGUAAUCCAU
RNA 2: GAUGGAUUACUUGGUAGAACAGCAAUCUACAAAAUCA
B2: binds [2].

B3: Lsh crRNA alone (structured_RNA)
RNA: GGCCACCCCAAUAUCGAAGGGGACUAAAACUAGAUUGCUGUUCUACCAAGUAAUCCAU
B3: binds [3].
